Key:
[1] = target: T1, human podocalyxin (human, UniProt O00592 23-558); test: flow cytometry, supernatant 2:15 (so in the source), MDA-MB-231 cells
T1 construct: also called hPodo; hPodocalyxin
T1 sequence: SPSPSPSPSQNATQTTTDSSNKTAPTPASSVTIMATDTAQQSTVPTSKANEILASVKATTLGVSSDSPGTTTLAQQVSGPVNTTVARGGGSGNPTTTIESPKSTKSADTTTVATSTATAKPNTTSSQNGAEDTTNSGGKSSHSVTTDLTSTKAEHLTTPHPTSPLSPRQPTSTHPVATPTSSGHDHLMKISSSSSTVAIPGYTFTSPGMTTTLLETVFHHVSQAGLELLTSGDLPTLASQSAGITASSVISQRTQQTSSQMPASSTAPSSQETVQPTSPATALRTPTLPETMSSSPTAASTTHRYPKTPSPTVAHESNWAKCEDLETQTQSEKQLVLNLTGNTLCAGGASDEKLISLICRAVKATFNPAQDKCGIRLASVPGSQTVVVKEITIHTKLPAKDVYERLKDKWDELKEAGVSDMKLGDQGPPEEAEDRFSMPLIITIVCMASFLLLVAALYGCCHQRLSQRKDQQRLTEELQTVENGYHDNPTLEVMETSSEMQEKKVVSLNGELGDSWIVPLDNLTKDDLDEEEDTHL
Experimental: (§1) The following antibodies were transiently transfected in 293HEK cells, transfected cells were incubated for 96 hours, antibody containing supernatant was then serially titrated in FACS sample buffer. The following supernatants were used as test samples:
(§2) MDA transient transfectants were established as essentially described above in Example 1. MDA transient transfectants and MDA-MB-231 cells were seeded in 96-well v bottom plates at 75,000 cells/well. Cells were pelleted by centrifugation at 400 g for 3 min. Supernatant was removed. The cell pellets were resuspended in 20 μl of the antibody or control supernatants. The plate was incubated on ice for 1 hour.
(§3) The cells were washed by adding 200 μl FACS buffer to dilute unbound antibody. The plate was centrifuged at 400 g for 3 min to pellet cells. The supernatant was removed and repeated. The cell pellets were resuspended in 25 μl of either goat anti-Hu IgG Fc-Alexa647, goat anti-Mouse IgG Fc-Alexa647, or goat anti-rabbit IgG0Fc-A647 (2 μg/ml) and 7A.A.D (2.5 μg/ml). The plates were incubated on ice for 0.5 hours. The wash procedure was again repeated 2×. The cell pellets were finally resuspended in 75 μl FACS buffer and read on the HTFC™ Screening System (IntelliCyt Corporation) (3 sec sip, 1.5 up time) and analyzed on the HyperView® software (IntelliCyt Corporation).

[2] = target: T1, human podocalyxin; test: flow cytometry, supernatant 1:125, hPodo/MDA-MB-231 transient transfectants
Experimental: as §1, §2, §3

[3] = target: T1, human podocalyxin; test: flow cytometry, supernatant Neat, hPodo/MDA-MB-231 transient transfectants
Experimental: as §1, §2, §3

[4] = target: T1, human podocalyxin; test: flow cytometry, supernatant Neat, MDA-MB-231 cells
Experimental: as §1, §2, §3

[5] = target: T1, human podocalyxin; test: kinetic exclusion assay (KinExA 3200), MDA-MB-231 cells
Experimental: The concentration dependence of free anti-podocalyxin antibody as a function of MDA-MB231 cell number was determined using a KinExA 3200 instrument (Sapidyne Instruments). Briefly, MDA-MB-231 cells, which express endogenous podocalyxin, were titrated 1:2 from 10×10⁶ cells/mL down 12 steps, and incubated with a fixed concentration of anti-podocalyxin antibodies. MDA-MB231 cells and cell bound antibodies were then isolated by centrifugation. Supernatant containing free, unbound antibody was then transferred to a new tube. The supernatant containing free unbound antibody was passed over the column containing PMMA beads coated with a goat anti-IgG-Fc capture antibody. The amount of free antibody captured on the PMMA beads was then measured using a goat anti-IgG-Fc-A647. This process was repeated for every cell concentration. For each sample assayed a new column of PMMA beads with the goat anti-IgG-Fc capture antibody was packed. The concentration of free antibody over the entire 12 step dilution series was then used to determine the antibody Kd's using the standard Kd template in the KineExA Pro Software (Sapidyne Instruments).

[6] = target: T1, human podocalyxin; test: flow cytometry, supernatant 1:5, hPodo/MDA-MB-231 transient transfectants
Experimental: as §1, §2, §3

[7] = target: T1, human podocalyxin; test: flow cytometry titration on 293-6E cells (endogenous podocalyxin), 48 hours at 4 C
Experimental: (§4) The affinities of huPodo 83 1:1 and huPodo 83 2:1 antibodies were determined against endogenously expressed podocalyxin on 293 HEK cells. 293-6E cells were seeded in 96-well v bottom plates at 100,000 cells/well. The cells were pelleted at 400 g for 3 min and the supernatant was discarded. The cells were placed on ice and antibody 1:3 titrations were prepared using ice cold medium. The cells were resuspended in the prepared antibody titrations at 25 μl/well and incubated at 4° C. for either 24 or 48 hours. 200 μl 1% FBS/PGS (FACS buffer) was added to each well. The cells were pelleted at 400 g for 3 min and supernatant removed. The wash was repeated 2 more times. The cells were resuspended in goat anti-human IgGFc-A647 (2 μg/ml)+2.5 μg/ml 7AAD and incubated on ice for 30 min. The cells were washed as above and resuspended in 50 μl FACS buffer. The cells were analyzed by flow cytometry using the HTFC™ Screening System (IntelliCyt Corporation) (3 sec sip, 1.5 sec up) and the C6 cytometer (Becton Dickenson).

[8] = target: T1, human podocalyxin; test: kinetic exclusion assay (KinExA 3200), A172 cells
[9] = target: T1, human podocalyxin; test: flow cytometry, supernatant 1:5, MDA-MB-231 cells
Experimental: as §1, §2, §3

[10] = target: T1, human podocalyxin; test: flow cytometry titration on 293-6E cells (endogenous podocalyxin), 24 hours at 4 C
Experimental: as §4

[11] = target: T1, human podocalyxin; test: flow cytometry, supernatant 1:125, MDA-MB-231 cells
Experimental: as §1, §2, §3

[12] = target: T1, human podocalyxin; test: flow cytometry, supernatant 2:15 (so in the source), hPodo/MDA-MB-231 transient transfectants
Experimental: as §1, §2, §3

flow cytometry fluorescence (name not given) [1]: 102000
flow cytometry fluorescence (name not given) [2]: 58500
flow cytometry fluorescence (name not given) [3]: 79000
flow cytometry fluorescence (name not given) [4]: 143000
Kd [5]: 0.0456 nM
flow cytometry fluorescence (name not given) [6]: 99300
IC50 [7]: 0.0305 µg/mL
Kd [8]: 0.103 nM
flow cytometry fluorescence (name not given) [9]: 121000
IC50 [10]: 0.0295 µg/mL
flow cytometry fluorescence (name not given) [11]: 50600
flow cytometry fluorescence (name not given) [12]: 155000
B1: Rb/Hu Podo83 (Podo83 rabbit VH and VL, human IgG1 chimera) (antibody, V domains shown)
VH: QSLAESGGRLVTPGTPLTLTCTASGIDLSSYAMGWVRQAPGKGLEYIGFIYASGSIFYASWAKGRFTISKTSSTTVDLKMTSLTTEDTATYFCARAGYYFGGNYDLNLWGQGTLVTVSS
VL: DIVLTQTPASVEVAVGGTVTIKCQASQSISNYLAWYQRKPGQPPRLLIYRASTLASGVSSRFKGSGSGTQFTLTISGVECADAATYYCQQGYVSNNLDNIFGGGTEVVVK
notes: Rabbit variable domains cloned into human IgG1 and human Ig kappa constant region constructs (pTT5/IgG1, pTT5/Igk); also called anti-PODO; Ab-1

— US20190367606A1 (CENTRE FOR DRUG RESEARCH AND DEVELOPMENT, published 2019)
